Results reported in PMC11870023, “A facile assay for zDHHC palmitoyl transferase activation elucidates effects of mutation and modification” (Journal of Lipid Research, 2025).
Numbering of substitutions follows the chain as printed. Names and notes keep the numbering of the source.

B1: human zDHHC14 (Homo sapiens; A373Y) (protein)
chain: MPPGGGGPMKDCEYSQISTHSSSPMESPHKKKKIAARRKWEVFPGRNKFFCNGRIMMARQTGVFYLTLVLILVTSGLFFAFDCPYLAVKITPAIPAVAGILFFFVMGTLLRTSFSDPGVLPRATPDEAADLERQIDIANGTSSGGYRPPPRTKEVIINGQTVKLKYCFTCKIFRPPRASHCSLCDNCVERFDHHCPWVGNCVGKRNYRFFYMFILSLSFLTVFIFAFVITHVILRSQQTGFLNALKDSPASVLEAVVCFFSVWSIVGLSGFHTYLISSNQTTNEDIKGSWSNKRGKENYNPYSYGNIFTNCCVALCGPISPSLIDRRGYIQPDTPQPAAPSNGITMYGATQSQSDMCDQDQCIQSTKFVLQAYATPLLQSEPSLTSDELHLPGKPGLGTPCASLTLGPPTPPASMPNLAEATLADVMPRKDEHMGHQFLTPDEAPSPPRLLAAGSPLAHSRTMHVLGLASQDSLHEDSVRGLVKLSSV
notes: full length, His6-Myc tag kept (pCEpuro-His6-Myc-1), HEK293 membrane fraction
B2: human zDHHC14 (Homo sapiens; L215S) (protein)
chain: B1 chain with L215S, Y373A
notes: as for B1

Legend:
[1] = substrate: CC(C)(COP(=O)(O)OP(=O)(O)OC[C@H]1O[C@@H](n2cnc3c(N)ncnc32)[C@H](O)[C@@H]1OP(=O)(O)O)[C@@H](O)C(=O)NCCC(=O)NCCSC(=O)CCCCCCCCCCCCCCCNc1ccc([N+](=O)[O-])c2nonc12; test: auto-S-palmitoylation of HEK293 membranes, SDS-PAGE fluorescence normalised to tag Western blot; assay type: cell-based, Homo sapiens; details: pH 7.4, 37 °C, 2 min, labelled compound, covalent thioester at active-site Cys
From the text: auto-S-palmitoylation of HEK293 membranes, SDS-PAGE fluorescence normalised to tag Western blot on human zDHHC14 | A373Y mutation within the N-terminal cytoplasmic tail of zDHHC14 (Fig. 4A) had no effect

[2] = substrate: CC(C)(COP(=O)(O)OP(=O)(O)OC[C@H]1O[C@@H](n2cnc3c(N)ncnc32)[C@H](O)[C@@H]1OP(=O)(O)O)[C@@H](O)C(=O)NCCC(=O)NCCSC(=O)CCCCCCCCCCCCCCCNc1ccc([N+](=O)[O-])c2nonc12; test: as above; assay type: cell-based, Homo sapiens; details: pH 7.4, 37 °C, 2 min, labelled compound, covalent thioester at active-site Cys; remark: listed apart in the source
From the text: auto-S-palmitoylation of HEK293 membranes, SDS-PAGE fluorescence normalised to tag Western blot on human zDHHC14 | L215S mutation within the third transmembrane segment of zDHHC14 (Fig. 4A) substantially diminished auto-S-palmitoylation

Row | Protein | Km [1] | Km [2]
1 | B1 | 1.72 ± 0.50 µM | 
2 | B2 |  | 4.46 ± 2.66 µM
